Results as given in CN117643628A (SHANGHAI JUNSHI BIOSCIENCES CO LTD; JUNMENG BIOSCIENCES CO …, dated 2024).

Target: SARS-COV-2野生型毒株Spike蛋白的RBD (SARS-COV-2野生型毒株, UniProt P0DTC2 319-541)
Test: BLI (Octet), antibody captured on Protein A probes, RBD at 15 nM and 60 nM in solution

B1: HUR33变体 (antibody, human IgG1, kappa, V domains shown)
VH: QVQLVQSGSELKKPGASVKVSCKASGYTFTDYGMNWVRQAPGQGLEWMGWINTYSGEPTYADDFRGRFVFSLDTSVSTAYLQISSLKAEDTAVYYCARGGNWDWYFDVWGQGTLVTVSS
VL: DIQMTQSPSSLSASVGDRVTITCRASQSVSNFLHWYQQKPGKAPKLLIYYASQSISGVPSRFSGSGSGTDFTLTISSLQPEDFATYYCQQSNTWPLTFGQGTKLEIKR
notes: also called HUR33-1; HUR33 variant
B1: binds.
